Source: US20200024322A1 (Eli Lilly, published 2020)
Numbered stars: 1 amine (or outer) side, 2 acyl side, 3 side chain; on linkers, the order of the positions; unused ones are H or OH. Square brackets hold non-standard residues; d marks the D form. Side chains are listed from the residue outwards. Ends that are not written are not given here. * marks the point of attachment. C20 diacid = O=C(O)CCCCCCCCCCCCCCCCCCC(=O)*; γGlu = O=C(O)[C@H](CCC(=O)[*:2])N[*:1]; AEEA = NCCOCCOCC(=O)O; Aib = CC(C)(N)C(=O)O

B1: Example 36 (peptide)
peptide: Y[Aib]EGTFTSDYSILLDKIAQ[Aib]AFIEYLK([AEEA-AEEA-γGlu-C20 diacid])EGGPSSGAPPPS-NH2
modifications: N-terminus assumed
SMILES: CC[C@H](C)[C@H](NC(=O)[C@H](CCCCN)NC(=O)[C@H](CC(=O)O)NC(=O)[C@H](CC(C)C)NC(=O)[C@H](CC(C)C)NC(=O)[C@@H](NC(=O)[C@H](CO)NC(=O)[C@H](Cc1ccc(O)cc1)NC(=O)[C@H](CC(=O)O)NC(=O)[C@H](CO)NC(=O)[C@@H](NC(=O)[C@H](Cc1ccccc1)NC(=O)[C@@H](NC(=O)CNC(=O)[C@H](CCC(=O)O)NC(=O)C(C)(C)NC(=O)[C@@H](N)Cc1ccc(O)cc1)[C@@H](C)O)[C@@H](C)O)[C@@H](C)CC)C(=O)N[C@@H](C)C(=O)N[C@@H](CCC(N)=O)C(=O)NC(C)(C)C(=O)N[C@@H](C)C(=O)N[C@@H](Cc1ccccc1)C(=O)N[C@H](C(=O)N[C@@H](CCC(=O)O)C(=O)N[C@@H](Cc1ccc(O)cc1)C(=O)N[C@@H](CC(C)C)C(=O)N[C@@H](CCCCNC(=O)COCCOCCNC(=O)COCCOCCNC(=O)CC[C@H](NC(=O)CCCCCCCCCCCCCCCCCCC(=O)O)C(=O)O)C(=O)N[C@@H](CCC(=O)O)C(=O)NCC(=O)NCC(=O)N1CCC[C@H]1C(=O)N[C@@H](CO)C(=O)N[C@@H](CO)C(=O)NCC(=O)N[C@@H](C)C(=O)N1CCC[C@H]1C(=O)N1CCC[C@H]1C(=O)N1CCC[C@H]1C(=O)N[C@@H](CO)C(N)=O)[C@@H](C)CC
B2: Example 42 (peptide)
peptide: Y[Aib]EGTFTSDYSILLDKIAQ[Aib]AFIEYLIEGGPSK([AEEA-AEEA-γGlu-C20 diacid])GAPPPS-NH2
modifications: N-terminus assumed
SMILES: CC[C@H](C)[C@H](NC(=O)[C@H](CCCCN)NC(=O)[C@H](CC(=O)O)NC(=O)[C@H](CC(C)C)NC(=O)[C@H](CC(C)C)NC(=O)[C@@H](NC(=O)[C@H](CO)NC(=O)[C@H](Cc1ccc(O)cc1)NC(=O)[C@H](CC(=O)O)NC(=O)[C@H](CO)NC(=O)[C@@H](NC(=O)[C@H](Cc1ccccc1)NC(=O)[C@@H](NC(=O)CNC(=O)[C@H](CCC(=O)O)NC(=O)C(C)(C)NC(=O)[C@@H](N)Cc1ccc(O)cc1)[C@@H](C)O)[C@@H](C)O)[C@@H](C)CC)C(=O)N[C@@H](C)C(=O)N[C@@H](CCC(N)=O)C(=O)NC(C)(C)C(=O)N[C@@H](C)C(=O)N[C@@H](Cc1ccccc1)C(=O)N[C@H](C(=O)N[C@@H](CCC(=O)O)C(=O)N[C@@H](Cc1ccc(O)cc1)C(=O)N[C@@H](CC(C)C)C(=O)N[C@H](C(=O)N[C@@H](CCC(=O)O)C(=O)NCC(=O)NCC(=O)N1CCC[C@H]1C(=O)N[C@@H](CO)C(=O)N[C@@H](CCCCNC(=O)COCCOCCNC(=O)COCCOCCNC(=O)CC[C@H](NC(=O)CCCCCCCCCCCCCCCCCCC(=O)O)C(=O)O)C(=O)NCC(=O)N[C@@H](C)C(=O)N1CCC[C@H]1C(=O)N1CCC[C@H]1C(=O)N1CCC[C@H]1C(=O)N[C@@H](CO)C(N)=O)[C@@H](C)CC)[C@@H](C)CC
B3: Example 39 (peptide)
peptide: Y[Aib]EGTFTSDYSILLDKIAQ[Aib]AFIEYLIEGK([AEEA-AEEA-γGlu-C20 diacid])PSSGAPPPS-NH2
modifications: N-terminus assumed
SMILES: CC[C@H](C)[C@H](NC(=O)[C@H](CCCCN)NC(=O)[C@H](CC(=O)O)NC(=O)[C@H](CC(C)C)NC(=O)[C@H](CC(C)C)NC(=O)[C@@H](NC(=O)[C@H](CO)NC(=O)[C@H](Cc1ccc(O)cc1)NC(=O)[C@H](CC(=O)O)NC(=O)[C@H](CO)NC(=O)[C@@H](NC(=O)[C@H](Cc1ccccc1)NC(=O)[C@@H](NC(=O)CNC(=O)[C@H](CCC(=O)O)NC(=O)C(C)(C)NC(=O)[C@@H](N)Cc1ccc(O)cc1)[C@@H](C)O)[C@@H](C)O)[C@@H](C)CC)C(=O)N[C@@H](C)C(=O)N[C@@H](CCC(N)=O)C(=O)NC(C)(C)C(=O)N[C@@H](C)C(=O)N[C@@H](Cc1ccccc1)C(=O)N[C@H](C(=O)N[C@@H](CCC(=O)O)C(=O)N[C@@H](Cc1ccc(O)cc1)C(=O)N[C@@H](CC(C)C)C(=O)N[C@H](C(=O)N[C@@H](CCC(=O)O)C(=O)NCC(=O)N[C@@H](CCCCNC(=O)COCCOCCNC(=O)COCCOCCNC(=O)CC[C@H](NC(=O)CCCCCCCCCCCCCCCCCCC(=O)O)C(=O)O)C(=O)N1CCC[C@H]1C(=O)N[C@@H](CO)C(=O)N[C@@H](CO)C(=O)NCC(=O)N[C@@H](C)C(=O)N1CCC[C@H]1C(=O)N1CCC[C@H]1C(=O)N1CCC[C@H]1C(=O)N[C@@H](CO)C(N)=O)[C@@H](C)CC)[C@@H](C)CC
B4: Example 37 (peptide)
peptide: Y[Aib]EGTFTSDYSILLDKIAQ[Aib]AFIEYLIK([AEEA-AEEA-γGlu-C20 diacid])GGPSSGAPPPS-NH2
modifications: N-terminus assumed
SMILES: CC[C@H](C)[C@H](NC(=O)[C@H](CCCCN)NC(=O)[C@H](CC(=O)O)NC(=O)[C@H](CC(C)C)NC(=O)[C@H](CC(C)C)NC(=O)[C@@H](NC(=O)[C@H](CO)NC(=O)[C@H](Cc1ccc(O)cc1)NC(=O)[C@H](CC(=O)O)NC(=O)[C@H](CO)NC(=O)[C@@H](NC(=O)[C@H](Cc1ccccc1)NC(=O)[C@@H](NC(=O)CNC(=O)[C@H](CCC(=O)O)NC(=O)C(C)(C)NC(=O)[C@@H](N)Cc1ccc(O)cc1)[C@@H](C)O)[C@@H](C)O)[C@@H](C)CC)C(=O)N[C@@H](C)C(=O)N[C@@H](CCC(N)=O)C(=O)NC(C)(C)C(=O)N[C@@H](C)C(=O)N[C@@H](Cc1ccccc1)C(=O)N[C@H](C(=O)N[C@@H](CCC(=O)O)C(=O)N[C@@H](Cc1ccc(O)cc1)C(=O)N[C@@H](CC(C)C)C(=O)N[C@H](C(=O)N[C@@H](CCCCNC(=O)COCCOCCNC(=O)COCCOCCNC(=O)CC[C@H](NC(=O)CCCCCCCCCCCCCCCCCCC(=O)O)C(=O)O)C(=O)NCC(=O)NCC(=O)N1CCC[C@H]1C(=O)N[C@@H](CO)C(=O)N[C@@H](CO)C(=O)NCC(=O)N[C@@H](C)C(=O)N1CCC[C@H]1C(=O)N1CCC[C@H]1C(=O)N1CCC[C@H]1C(=O)N[C@@H](CO)C(N)=O)[C@@H](C)CC)[C@@H](C)CC
B5: Example 40 (peptide)
peptide: Y[Aib]EGTFTSDYSILLDKIAQ[Aib]AFIEYLIEGGK([AEEA-AEEA-γGlu-C20 diacid])SSGAPPPS-NH2
modifications: N-terminus assumed
SMILES: CC[C@H](C)[C@H](NC(=O)[C@H](CCCCN)NC(=O)[C@H](CC(=O)O)NC(=O)[C@H](CC(C)C)NC(=O)[C@H](CC(C)C)NC(=O)[C@@H](NC(=O)[C@H](CO)NC(=O)[C@H](Cc1ccc(O)cc1)NC(=O)[C@H](CC(=O)O)NC(=O)[C@H](CO)NC(=O)[C@@H](NC(=O)[C@H](Cc1ccccc1)NC(=O)[C@@H](NC(=O)CNC(=O)[C@H](CCC(=O)O)NC(=O)C(C)(C)NC(=O)[C@@H](N)Cc1ccc(O)cc1)[C@@H](C)O)[C@@H](C)O)[C@@H](C)CC)C(=O)N[C@@H](C)C(=O)N[C@@H](CCC(N)=O)C(=O)NC(C)(C)C(=O)N[C@@H](C)C(=O)N[C@@H](Cc1ccccc1)C(=O)N[C@H](C(=O)N[C@@H](CCC(=O)O)C(=O)N[C@@H](Cc1ccc(O)cc1)C(=O)N[C@@H](CC(C)C)C(=O)N[C@H](C(=O)N[C@@H](CCC(=O)O)C(=O)NCC(=O)NCC(=O)N[C@@H](CCCCNC(=O)COCCOCCNC(=O)COCCOCCNC(=O)CC[C@H](NC(=O)CCCCCCCCCCCCCCCCCCC(=O)O)C(=O)O)C(=O)N[C@@H](CO)C(=O)N[C@@H](CO)C(=O)NCC(=O)N[C@@H](C)C(=O)N1CCC[C@H]1C(=O)N1CCC[C@H]1C(=O)N1CCC[C@H]1C(=O)N[C@@H](CO)C(N)=O)[C@@H](C)CC)[C@@H](C)CC
B6: Example 41 (peptide)
peptide: Y[Aib]EGTFTSDYSILLDKIAQ[Aib]AFIEYLIEGGPK([AEEA-AEEA-γGlu-C20 diacid])SGAPPPS-NH2
modifications: N-terminus assumed
SMILES: CC[C@H](C)[C@H](NC(=O)[C@H](CCCCN)NC(=O)[C@H](CC(=O)O)NC(=O)[C@H](CC(C)C)NC(=O)[C@H](CC(C)C)NC(=O)[C@@H](NC(=O)[C@H](CO)NC(=O)[C@H](Cc1ccc(O)cc1)NC(=O)[C@H](CC(=O)O)NC(=O)[C@H](CO)NC(=O)[C@@H](NC(=O)[C@H](Cc1ccccc1)NC(=O)[C@@H](NC(=O)CNC(=O)[C@H](CCC(=O)O)NC(=O)C(C)(C)NC(=O)[C@@H](N)Cc1ccc(O)cc1)[C@@H](C)O)[C@@H](C)O)[C@@H](C)CC)C(=O)N[C@@H](C)C(=O)N[C@@H](CCC(N)=O)C(=O)NC(C)(C)C(=O)N[C@@H](C)C(=O)N[C@@H](Cc1ccccc1)C(=O)N[C@H](C(=O)N[C@@H](CCC(=O)O)C(=O)N[C@@H](Cc1ccc(O)cc1)C(=O)N[C@@H](CC(C)C)C(=O)N[C@H](C(=O)N[C@@H](CCC(=O)O)C(=O)NCC(=O)NCC(=O)N1CCC[C@H]1C(=O)N[C@@H](CCCCNC(=O)COCCOCCNC(=O)COCCOCCNC(=O)CC[C@H](NC(=O)CCCCCCCCCCCCCCCCCCC(=O)O)C(=O)O)C(=O)N[C@@H](CO)C(=O)NCC(=O)N[C@@H](C)C(=O)N1CCC[C@H]1C(=O)N1CCC[C@H]1C(=O)N1CCC[C@H]1C(=O)N[C@@H](CO)C(N)=O)[C@@H](C)CC)[C@@H](C)CC

biological target: T1, human GLP-1 receptor (human, UniProt P43220 24-463); assay: SPA, [125I]-GLP-1 displacement, hGLP-1R membranes
T1 construct: whole, on cells; Used as crude membranes of stably transfected HEK293 cells; also called hGLP1R; hGLP-1R

Row | Binder | Ki [nM]
1 | B1 | 16.4
2 | B2 | 13.2
3 | B3 | 16.8
4 | B4 | 3.84
5 | B5 | 7.56
6 | B6 | 13.4

biological target: T2, human glucagon receptor (human, UniProt P47871 26-477); assay: SPA, [125I]-Gcg displacement, hGcgR membranes
T2 construct: whole, on cells; Used as crude membranes of stably transfected HEK293 cells; also called hGcgR; hGLcgR
T2 sequence (P47871 26-477): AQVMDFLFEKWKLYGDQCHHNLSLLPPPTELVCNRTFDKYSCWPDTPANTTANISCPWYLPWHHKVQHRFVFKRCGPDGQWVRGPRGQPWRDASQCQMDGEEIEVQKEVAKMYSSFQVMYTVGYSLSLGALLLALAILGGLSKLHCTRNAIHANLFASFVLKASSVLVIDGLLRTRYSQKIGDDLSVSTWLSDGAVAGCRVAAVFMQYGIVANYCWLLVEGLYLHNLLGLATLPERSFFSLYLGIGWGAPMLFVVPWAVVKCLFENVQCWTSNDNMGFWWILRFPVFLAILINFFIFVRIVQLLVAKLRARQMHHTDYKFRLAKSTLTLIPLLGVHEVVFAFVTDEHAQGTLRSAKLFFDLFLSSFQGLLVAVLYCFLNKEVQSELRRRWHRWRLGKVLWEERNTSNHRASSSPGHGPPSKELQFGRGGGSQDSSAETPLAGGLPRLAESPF

Row | Binder | Ki [nM]
7 | B1 | 413
8 | B2 | 160
9 | B3 | 161
10 | B4 | 255
11 | B5 | 150
12 | B6 | 165

biological target: T3, human GIP receptor (human, UniProt P48546 22-466); assay: SPA, [125I]-GIP displacement, hGIPR membranes
T3 construct: whole, on cells; Used as crude membranes of stably transfected CHO cells; also called hGIPR
T3 sequence (looked up): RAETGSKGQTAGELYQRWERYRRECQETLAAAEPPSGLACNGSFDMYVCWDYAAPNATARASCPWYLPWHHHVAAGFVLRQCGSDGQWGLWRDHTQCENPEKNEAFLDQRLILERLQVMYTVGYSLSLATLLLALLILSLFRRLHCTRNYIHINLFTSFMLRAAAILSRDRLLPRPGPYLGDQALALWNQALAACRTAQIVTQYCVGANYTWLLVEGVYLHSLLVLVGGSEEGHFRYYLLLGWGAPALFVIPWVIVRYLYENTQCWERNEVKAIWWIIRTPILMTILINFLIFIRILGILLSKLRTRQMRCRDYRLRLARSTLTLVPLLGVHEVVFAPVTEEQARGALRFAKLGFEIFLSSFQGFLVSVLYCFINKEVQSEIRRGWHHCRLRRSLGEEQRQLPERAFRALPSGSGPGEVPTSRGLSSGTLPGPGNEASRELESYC

Row | Binder | Ki [nM]
13 | B1 | 0.141
14 | B2 | 0.0514
15 | B3 | 0.0499
16 | B4 | 0.0523
17 | B5 | 0.0345
18 | B6 | 0.0551
